We go through one substance from paper doi:10.1101/2025.02.06.636796.

For assay [1], the target named is Taxol-stabilized microtubules of mouse brain tubulin (untreated, wild-type) (mouse) (UniProt P68369). The assay is described as follows: FRAP in TIRF microscopy on immobilised microtubules.
Assay [2] has the same target. The assay can be described thus: cell lysate-based TIRF microscopy on immobilised microtubules.

Consider “YFP-Trim69 wild type (Tripartite motif protein 69) (from UniProt Q86WT6 1-500) (natural protein)”, for which the fluorescence recovery at 6.5 min after photobleaching in assay [1] amounted to 20%. In assay [2], this substance showed a cumulative fluorescent signal on MTs of 395, a density on MTs at 10x lysate dilution of 2980, a density on MTs at 100x lysate dilution of 731 and a fluorescent intensity on microtubules of 194.
